Laboratory results published in patent publication US20180111996A1 (Merck Sharp & Dohme, published 2018).
Like-named read-outs stand apart in the source and are kept apart here. Blank lines part the entries; values can stand above or below the binder they belong to.

Tests used:
[1] = molecular target: T1, human PD-1 (hPD-1) receptor expressed on cells (human, UniProt Q15116 25-288); assay: FMAT competition on CHO-hPD-1 cells; blocked ligand: fluorescently labelled hPD-L2/Fc at a constant concentration
T1 construct: whole, on cells; also called hPD-1/CHO; CHO-hPD1
T1 sequence (Q15116 25-288): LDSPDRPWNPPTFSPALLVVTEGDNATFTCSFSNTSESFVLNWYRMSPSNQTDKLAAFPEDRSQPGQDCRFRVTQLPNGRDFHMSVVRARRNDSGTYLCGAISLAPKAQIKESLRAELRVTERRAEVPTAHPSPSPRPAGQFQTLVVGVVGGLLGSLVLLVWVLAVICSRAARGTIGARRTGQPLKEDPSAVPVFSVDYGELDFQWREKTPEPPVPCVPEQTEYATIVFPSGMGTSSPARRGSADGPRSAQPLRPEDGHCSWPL

[2] = molecular target: T1, human PD-1 (hPD-1) receptor expressed …; assay: FACS, blockade of hPD-L1/Fc binding to CHO cells expressing human PD-1
hPD-1/Fc (R & D Systems) [3] = molecular target: T2, hPD-1/Fc (R & D Systems) (human, UniProt Q15116 25-167); assay: bio-light interferometry (ForteBio Octet), PD-1/Fc on biosensor
T2 construct: also called human PD-1/Fc; PD-1-Fc fusion protein; not shown: Fc part of the bought fusion protein, not described
T2 sequence (Q15116 25-167 limits assumed): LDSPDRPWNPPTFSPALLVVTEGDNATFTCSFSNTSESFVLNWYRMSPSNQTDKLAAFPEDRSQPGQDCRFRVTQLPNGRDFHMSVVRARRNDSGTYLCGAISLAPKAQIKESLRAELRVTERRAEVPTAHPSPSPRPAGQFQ

[4] = molecular target: T1, human PD-1 (hPD-1) receptor expressed …; assay: FACS, blockade of hPD-L1/Fc binding to CHO cells expressing human PD-1; remark: listed apart in the source
[5] = molecular target: T1, human PD-1 (hPD-1) receptor expressed …; assay: FMAT competition on CHO-hPD-1 cells; blocked ligand: fluorescently labelled hPD-L1/Fc at a constant concentration
hPD-1/Fc (R & D Systems) [6] = molecular target: T2, hPD-1/Fc (R & D Systems); assay: bio-light interferometry (ForteBio Octet); lower end tied to 09A by Table II
[7] = molecular target: T3, cynomolgus macaque PD-1 receptor on stably transfected CHO-K1 cells (cynomolgus macaque, UniProt B0LAJ3 25-288); assay: CELISA on cynomolgus PD-1 transfected CHO-K1 cells
T3 construct: also called cynomolgus PD-1; cynomolgous PD-1
T3 sequence (B0LAJ3 entry or part of it limits assumed): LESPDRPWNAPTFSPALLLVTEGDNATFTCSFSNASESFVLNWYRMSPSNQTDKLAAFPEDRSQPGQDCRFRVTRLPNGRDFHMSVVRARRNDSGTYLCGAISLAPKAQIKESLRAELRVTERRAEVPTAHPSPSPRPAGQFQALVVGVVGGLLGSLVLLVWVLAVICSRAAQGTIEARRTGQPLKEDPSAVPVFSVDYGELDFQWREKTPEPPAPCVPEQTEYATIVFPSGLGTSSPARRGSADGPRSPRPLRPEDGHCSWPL

[8] = molecular target: T4, mouse PD-1 receptor on stably transfected CHO-K1 cells (mouse, UniProt Q02242 25-288); assay: CELISA and other assays on mouse PD-1 transfected CHO-K1 cells
T4 construct: whole, on cells
T4 sequence (looked up): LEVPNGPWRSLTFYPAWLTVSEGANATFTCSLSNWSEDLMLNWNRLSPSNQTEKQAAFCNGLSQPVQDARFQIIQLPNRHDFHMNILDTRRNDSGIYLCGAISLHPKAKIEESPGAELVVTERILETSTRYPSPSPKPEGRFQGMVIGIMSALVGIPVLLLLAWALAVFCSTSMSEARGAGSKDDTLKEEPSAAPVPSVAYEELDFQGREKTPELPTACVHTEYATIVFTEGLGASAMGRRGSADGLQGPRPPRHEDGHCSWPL

[9] = molecular target: T1, human PD-1 (hPD-1) receptor expressed …; assay: CELISA on CHO-hPD-1 cells
[10] = molecular target: T1, human PD-1 (hPD-1) receptor expressed …; assay: FMAT, blockade of labeled hPD-L1/Fc binding to CHO-hPD-1 cells
[11] = molecular target: T1, human PD-1 (hPD-1) receptor expressed …; assay: cell-based or functional assay
[12] = molecular target: T1, human PD-1 (hPD-1) receptor expressed …; assay: FMAT, blockade of labeled hPD-L2/Fc binding to CHO-hPD-1 cells
[13] = molecular target: T1, human PD-1 (hPD-1) receptor expressed …; assay: CELISA on CHO cells expressing human PD-1, 450/620 nm
hPD-1/Fc (R & D Systems) [14] = molecular target: T2, hPD-1/Fc (R & D Systems); assay: protein ELISA, hPD-1/Fc immobilized
[15] = molecular target: T3, cynomolgus macaque PD-1 receptor on …; assay: inhibition of ligand (PD-L1, PD-L2) binding to cynomolgous PD-1
[16] = molecular target: cynomolgous PD-1 (form in the kinetic assay not stated) (cynomolgus macaque); assay: kinetic analysis, format for cynomolgus PD-1 not stated
[17] = molecular target: T1, human PD-1 (hPD-1) receptor expressed …; assay: FMAT, blockade of hPD-L2/Fc binding to CHO-hPD-1 cells
hPD-1/Fc (R & D Systems) [18] = molecular target: T2, hPD-1/Fc (R & D Systems); assay: bio-light interferometry (ForteBio Octet), PD-1/Fc on biosensor; remark: listed apart in the source
hPD-1/Fc (R & D Systems) [19] = molecular target: T2, hPD-1/Fc (R & D Systems); assay: protein ELISA, hPD-1/Fc immobilized; remark: listed apart in the source
[20] = molecular target: T1, human PD-1 (hPD-1) receptor expressed …; assay: CELISA on CHO-hPD-1 cells; remark: listed apart in the source
[21] = molecular target: T1, human PD-1 (hPD-1) receptor expressed …; assay: FMAT, blockade of hPD-L1/Fc binding to CHO-hPD-1 cells

B2: hPD-1.08A (antibody, V domains shown)
VH: QVQLQQPGAELVKPGASVKLSCKASGYTFTSYYLYWMKQRPGQGLEWIGGVNPSNGGTNFSEKFKSKATLTVDKSSSTAYMQLSSLTSEDSAVYYCTRRDSNYDGGFDYWGQGTTLTVSS
VL: DIVLTQSPTSLAVSLGQRATISCRASKSVSTSGFSYLHWYQQKPGQPPKLLIFLASNLESGVPARFSGSGSGTDFTLNIHPVEEEDAATYYCQHSWELPLTFGAGTKLELK
- IC50 (read off the curve) [1]: ~2000 pM
- IC50 [2]: 0.9 pM
- Kd (hPD-1/Fc (R & D Systems) [3]): 24.1 pM
- koff (hPD-1/Fc (R & D Systems) [3]): 3.03e-05 s⁻¹
- kon (hPD-1/Fc (R & D Systems) [3]): 1.25e+06 M⁻¹ s⁻¹
- IC50 [4]: < 1000 pM
- IC50 (read off the curve) [5]: ~700 pM
- binding result [7]: binds
- binding result [8]: no binding
- EC50 [9]: 79 pM
- IC50 [10]: 0.73 pM
- IC50 [12]: 2.1 pM
- EC50 (read off the curve) [13]: ~80 pM
- EC50 (hPD-1/Fc (R & D Systems) [14]): 76 pM

B4: h409A16 (antibody, human IgG4 S228P, kappa, V domains shown)
VH: QVQLVQSGVEVKKPGASVKVSCKASGYTFTNYYMYWVRQAPGQGLEWMGGINPSNGGTNFNEKFKNRVTLTTDSSTTTAYMELKSLQFDDTAVYYCARRDYRFDMGFDYWGQGTTVTVSS
VL: EIVLTQSPLSLPVTPGEPASISCRASKGVSTSGYSYLHWYLQKPGQSPQLLIYLASYLESGVPDRFSGSGSGTDFTLKISRVEAEDVGVYYCQHSRDLPLTFGQGTKLEIKR
notes: also called humanized IgG4 version of 09A antibody (409A-H + K09A-L-16)
- IC50 [17]: 810 pM
- Kd (hPD-1/Fc (R & D Systems) [18]): 27.3 pM
- koff (hPD-1/Fc (R & D Systems) [18]): 2.72e-05 s⁻¹
- kon (hPD-1/Fc (R & D Systems) [18]): 997000 M⁻¹ s⁻¹
- EC50 (hPD-1/Fc (R & D Systems) [19]): 90 pM
- EC50 [20]: 63 pM
- IC50 [21]: 696 pM
- IC50 [15]: < 1000 pM
- Kd [16]: < 120 pM

Other lines, results leading:

- IC50 (read off the curve) [1]: ~2000 pM
- IC50 [2]: 0.8 pM
- Kd (hPD-1/Fc (R & D Systems) [3]): 22 pM
- koff (hPD-1/Fc (R & D Systems) [3]): 3.6e-05 s⁻¹
- kon (hPD-1/Fc (R & D Systems) [3]): 1.64e+06 M⁻¹ s⁻¹
- IC50 [4]: < 1000 pM
- IC50 (read off the curve) [5]: ~800 pM
- Kd (hPD-1/Fc (R & D Systems) [6]): 20 pM
- binding result [7]: binds
- binding result [8]: no binding
- EC50 [9]: 113 pM
- IC50 [10]: 0.9 pM
- fold change in IFNgamma, SEB stimulated blood of patient A (prostate), 25 ug/mL hPD-1.09A vs SEB alone [11]: 1.9 fold
- fold change in IFNgamma, SEB stimulated blood of patient B (prostate), 25 ug/mL hPD-1.09A vs SEB alone [11]: 1.2 fold
- fold change in IFNgamma, SEB stimulated blood of patient C (prostate), 25 ug/mL hPD-1.09A vs SEB alone [11]: 2 fold
- fold change in IFNgamma, SEB stimulated blood of patient D (melanoma), 25 ug/mL hPD-1.09A vs SEB alone [11]: 1.5 fold
- fold change in IL-2, SEB stimulated blood of patient A (prostate), 25 ug/mL hPD-1.09A vs SEB alone [11]: 3.4 fold
- fold change in IL-2, SEB stimulated blood of patient B (prostate), 25 ug/mL hPD-1.09A vs SEB alone [11]: 2.1 fold
- fold change in IL-2, SEB stimulated blood of patient C (prostate), 25 ug/mL hPD-1.09A vs SEB alone [11]: 2 fold
- fold change in IL-2, SEB stimulated blood of patient D (melanoma), 25 ug/mL hPD-1.09A vs SEB alone [11]: 2 fold
- fold change in IL-5, SEB stimulated blood of patient A (prostate), 25 ug/mL hPD-1.09A vs SEB alone [11]: 0.7 fold
- fold change in IL-5, SEB stimulated blood of patient B (prostate), 25 ug/mL hPD-1.09A vs SEB alone [11]: 0.4 fold
- fold change in IL-5, SEB stimulated blood of patient C (prostate), 25 ug/mL hPD-1.09A vs SEB alone [11]: 0.9 fold
- fold change in IL-5, SEB stimulated blood of patient D (melanoma), 25 ug/mL hPD-1.09A vs SEB alone [11]: 0.4 fold
- fold change in IL-6, SEB stimulated blood of patient A (prostate), 25 ug/mL hPD-1.09A vs SEB alone [11]: 2.1 fold
- fold change in IL-6, SEB stimulated blood of patient B (prostate), 25 ug/mL hPD-1.09A vs SEB alone [11]: 2.2 fold
- fold change in IL-6, SEB stimulated blood of patient C (prostate), 25 ug/mL hPD-1.09A vs SEB alone [11]: 2.4 fold
- fold change in IL-6, SEB stimulated blood of patient D (melanoma), 25 ug/mL hPD-1.09A vs SEB alone [11]: 1.9 fold
- fold change in IL-13, SEB stimulated blood of patient A (prostate), 25 ug/mL hPD-1.09A vs SEB alone [11]: 0.8 fold
- fold change in IL-13, SEB stimulated blood of patient B (prostate), 25 ug/mL hPD-1.09A vs SEB alone [11]: 0.6 fold
- fold change in IL-13, SEB stimulated blood of patient C (prostate), 25 ug/mL hPD-1.09A vs SEB alone [11]: 1.1 fold
- fold change in IL-13, SEB stimulated blood of patient D (melanoma), 25 ug/mL hPD-1.09A vs SEB alone [11]: 0.5 fold
- fold change in IL-17, SEB stimulated blood of patient A (prostate), 25 ug/mL hPD-1.09A vs SEB alone [11]: 1.8 fold
- fold change in IL-17, SEB stimulated blood of patient B (prostate), 25 ug/mL hPD-1.09A vs SEB alone [11]: 2.6 fold
- fold change in IL-17, SEB stimulated blood of patient C (prostate), 25 ug/mL hPD-1.09A vs SEB alone [11]: 2.4 fold
- fold change in IL-17, SEB stimulated blood of patient D (melanoma), 25 ug/mL hPD-1.09A vs SEB alone [11]: 2 fold
- fold change in TNFalpha, SEB stimulated blood of patient A (prostate), 25 ug/mL hPD-1.09A vs SEB alone [11]: 2 fold
- fold change in TNFalpha, SEB stimulated blood of patient B (prostate), 25 ug/mL hPD-1.09A vs SEB alone [11]: 1.5 fold
- fold change in TNFalpha, SEB stimulated blood of patient C (prostate), 25 ug/mL hPD-1.09A vs SEB alone [11]: 2.4 fold
- fold change in TNFalpha, SEB stimulated blood of patient D (melanoma), 25 ug/mL hPD-1.09A vs SEB alone [11]: 1.9 fold
- IC50 [12]: 1.7 pM
- EC50 (read off the curve) [13]: ~100 pM
- EC50 (hPD-1/Fc (R & D Systems) [14]): 123 pM
B1: hPD-1.09A (antibody, V domains shown)
VH: QVQLQQPGAELVKPGTSVKLSCKASGYTFTNYYMYWVKQRPGQGLEWIGGINPSNGGTNFNEKFKNKATLTVDSSSSTTYMQLSSLTSEDSAVYYCTRRDYRFDMGFDYWGQGTTLTVSS
VL: DIVLTQSPASLAVSLGQRAAISCRASKGVSTSGYSYLHWYQQKPGQSPKLLIYLASYLESGVPARFSGSGSGTDFTLNIHPVEEEDAATYYCQHSRDLPLTFGTGTKLELK

- IC50 [15]: < 1000 pM
- Kd [16]: < 120 pM
B3: h409A11 (antibody, human IgG4 S228P, kappa, V domains shown)
VH: QVQLVQSGVEVKKPGASVKVSCKASGYTFTNYYMYWVRQAPGQGLEWMGGINPSNGGTNFNEKFKNRVTLTTDSSTTTAYMELKSLQFDDTAVYYCARRDYRFDMGFDYWGQGTTVTVSS
VL: EIVLTQSPATLSLSPGERATLSCRASKGVSTSGYSYLHWYQQKPGQAPRLLIYLASYLESGVPARFSGSGSGTDFTLTISSLEPEDFAVYYCQHSRDLPLTFGGGTKVEIKR
notes: also called humanized IgG4 version of 09A antibody (409A-H + K09A-L-11)

- IC50 [17]: 463 pM
- Kd (hPD-1/Fc (R & D Systems) [18]): 191 pM
- koff (hPD-1/Fc (R & D Systems) [18]): 0.000191 s⁻¹
- kon (hPD-1/Fc (R & D Systems) [18]): 1e+06 M⁻¹ s⁻¹
- EC50 (hPD-1/Fc (R & D Systems) [19]): 88 pM
- EC50 [20]: 83 pM
- IC50 [21]: 818 pM
- IC50 [15]: < 1000 pM
B5: h409A17 (antibody, human IgG4 S228P, kappa, V domains shown)
VH: QVQLVQSGVEVKKPGASVKVSCKASGYTFTNYYMYWVRQAPGQGLEWMGGINPSNGGTNFNEKFKNRVTLTTDSSTTTAYMELKSLQFDDTAVYYCARRDYRFDMGFDYWGQGTTVTVSS
VL: DIVMTQTPLSLPVTPGEPASISCRASKGVSTSGYSYLHWYLQKPGQSPQLLIYLASYLESGVPDRFSGSGSGTAFTLKISRVEAEDVGLYYCQHSRDLPLTFGQGTKLEIKR
notes: also called humanized IgG4 version of 09A antibody (409A-H + K09A-L-17)
